Values of other authors in publication PMC7463749.

What was measured:
BB1R (Homo sapiens) = BB1R (Homo sapiens) (UniProt P28336)
BB2R (Homo sapiens) = BB2R (Homo sapiens) (UniProt P30550)
Chain of UniProt P30550 (P30550 whole entry): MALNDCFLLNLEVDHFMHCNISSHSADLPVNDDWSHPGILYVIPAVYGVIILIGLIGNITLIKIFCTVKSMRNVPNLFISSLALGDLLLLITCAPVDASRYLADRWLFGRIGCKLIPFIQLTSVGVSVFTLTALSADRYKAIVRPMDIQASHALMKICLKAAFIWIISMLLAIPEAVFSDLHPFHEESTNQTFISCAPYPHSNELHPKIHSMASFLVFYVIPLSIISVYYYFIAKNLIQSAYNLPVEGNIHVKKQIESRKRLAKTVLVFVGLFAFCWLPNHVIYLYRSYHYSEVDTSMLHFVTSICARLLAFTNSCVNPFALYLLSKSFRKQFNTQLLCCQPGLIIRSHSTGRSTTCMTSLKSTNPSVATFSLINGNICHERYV

Chain of UniProt P28336 (P28336 whole entry): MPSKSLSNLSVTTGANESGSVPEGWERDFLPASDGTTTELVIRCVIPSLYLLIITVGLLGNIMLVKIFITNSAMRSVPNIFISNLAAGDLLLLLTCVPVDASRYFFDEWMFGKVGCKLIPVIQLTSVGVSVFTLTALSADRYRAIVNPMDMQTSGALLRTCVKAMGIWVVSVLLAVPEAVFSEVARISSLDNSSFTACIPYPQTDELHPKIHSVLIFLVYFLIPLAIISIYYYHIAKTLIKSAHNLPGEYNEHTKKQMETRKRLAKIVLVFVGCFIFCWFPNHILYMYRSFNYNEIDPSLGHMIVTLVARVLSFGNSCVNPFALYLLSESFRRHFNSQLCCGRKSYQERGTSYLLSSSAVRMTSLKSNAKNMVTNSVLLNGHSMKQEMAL

Question: Which Ki (BB1R (Homo sapiens)) does the source give for neuromedin B (from UniProt P08949) here?
Answer: 52 pM

Question: With “gastrin-releasing peptide (from UniProt P07492)” as the substance, how does the Ki (BB2R (Homo sapiens)) read?
Answer: 190 pM
